Consider 1 molecule from paper PMC12733253, “NFE2 Truncation Mutants Protect Wild-Type NFE2 from ITCH-Dependent Degradation” (International Journal of Molecular Sciences, 2025).

This assay concerns the target itchy E3 ubiquitin protein ligase (ITCH), wild type, MYC-tagged (UniProt Q96J02-2 1-862). The assay is described as follows: cell-based or functional assay.

itchy E3 ubiquitin protein ligase (ITCH), wild type, MYC-tagged, sequence (Q96J02 other isoform, or with tags, fused parts or gaps): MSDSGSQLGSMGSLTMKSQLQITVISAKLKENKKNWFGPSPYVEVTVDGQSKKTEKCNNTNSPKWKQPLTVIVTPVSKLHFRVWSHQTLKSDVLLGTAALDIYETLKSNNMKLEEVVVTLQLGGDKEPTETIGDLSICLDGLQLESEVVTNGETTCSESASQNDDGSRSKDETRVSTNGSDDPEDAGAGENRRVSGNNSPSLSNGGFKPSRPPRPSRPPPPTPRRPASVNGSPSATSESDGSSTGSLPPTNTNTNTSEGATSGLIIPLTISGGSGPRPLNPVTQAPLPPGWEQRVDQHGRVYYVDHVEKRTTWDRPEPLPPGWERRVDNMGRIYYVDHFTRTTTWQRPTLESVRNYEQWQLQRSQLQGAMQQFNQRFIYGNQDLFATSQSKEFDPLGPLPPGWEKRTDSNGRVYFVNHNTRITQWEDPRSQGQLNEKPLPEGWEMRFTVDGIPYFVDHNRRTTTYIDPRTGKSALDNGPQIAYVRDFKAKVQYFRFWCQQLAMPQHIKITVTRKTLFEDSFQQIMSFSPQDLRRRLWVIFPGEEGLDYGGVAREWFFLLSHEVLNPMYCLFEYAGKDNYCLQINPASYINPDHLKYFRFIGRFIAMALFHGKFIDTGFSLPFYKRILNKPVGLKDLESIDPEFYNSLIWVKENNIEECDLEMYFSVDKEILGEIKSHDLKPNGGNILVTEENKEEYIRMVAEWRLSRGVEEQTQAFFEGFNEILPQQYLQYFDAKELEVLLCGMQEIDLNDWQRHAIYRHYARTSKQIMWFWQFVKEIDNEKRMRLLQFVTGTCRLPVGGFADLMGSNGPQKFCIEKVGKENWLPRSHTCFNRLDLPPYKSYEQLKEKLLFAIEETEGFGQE

B1: wild-type nuclear factor erythroid 2 (NFE2), HA-tagged (natural protein, human, UniProt Q16621 1-373, looked up)
chain: MSPCPPQQSRNRVIQLSTSELGEMELTWQEIMSITELQGLNAPSEPSFEPQAPAPYLGPPPPTTYCPCSIHPDSGFPLPPPPYELPASTSHVPDPPYSYGNMAIPVSKPLSLSGLLSEPLQDPLALLDIGLPAGPPKPQEDPESDSGLSLNYSDAESLELEGTEAGRRRSEYVEMYPVEYPYSLMPNSLAHSNYTLPAAETPLALEPSSGPVRAKPTARGEAGSRDERRALAMKIPFPTDKIVNLPVDDFNELLARYPLTESQLALVRDIRRRGKNKVAAQNCRKRKLETIVQLERELERLTNERERLLRARGEADRTLEVMRQQLTELYRDIFQHLRDESGNSYSPEEYALQQAADGTIFLVPRGTKMEATD
With B1, the “NFE2 half-life in a cycloheximide chase, HEK-293T co-transfected with wt NFE2 and wt ITCH (approximately 3.5 h with empty vector; 6.5 h with inactive ITCH-C830A)” value was ~2 h.
